Square brackets hold non-standard residues; d marks the D form. Ends that are not written are not given here. Peptide text beside a SMILES is read from it. * marks the point of attachment. Dansyl = CN(C)c1cccc2c(S(=O)(=O)*)cccc12
What was measured:
[1] = Peptide stability in simulated intestinal fluid (SIF); format: in vitro ADME; settings: rank of relative stability to SIF
Protocol: Peptide (3.25 mg) was dissolved in 3.25 ml of 10,000 fold diluted SIF solution at 37° C. Aliquots (0.7 ml) of the digestion solution were then withdrawn at <1 min, 1h, 3h, and 21h or 24h. The samples were quickly passed through a syringe filter (Millipore Millex-GV 0.22 μm, part# SLGV025LS, lot# H2BM95250) and 300 μL of the filtered solution was immediately injected onto a Hewlett-Packard HPLC system equipped with a C-8 column (Applied Biosystems column and guard column: column-p/n 0711-0023 Spheri-5 ODS 5 μm, 220×4.6 mm). The products were eluted at 1.5 ml/min using an acetonitrile-water gradient. The major fluorescent peaks were collected, lyopholized and identified by MS analysis.

[2] = test system: P100 membrane fraction of Caco-2 cells; experiment: Dansylated peptide ELISA: relative binding of PAX2 and HAX42 peptides to P100 fractions (ratio to ZElan021); settings: PAX2 peptides, first column, ratio to ZElan021 = 1.00
How it was run: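 Plates coated overnight at 4 °C with Caco-2 P100 membrane fraction (normally 100 μg/ml, pH 9.6) and blocked with 2% Marvel/PBS were incubated with dansylated peptides. Binding was detected with anti-mouse λ-HRP and TMB, read at 650 nm, and expressed relative to ZElan021.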

[3] = test system: P100 membrane fraction of Caco-2 cells; experiment: Binding of dansylated peptides to P100 fractions (peptide/particle correlation)
Protocol: Caco-2 cell membrane (P100) and cytosolic (S100) fractions were prepared using a modification of the method described in Kinsella, B. T., O'Mahony, D. J. and G. A. FitzGerald, 1994, J. Biol. Chem. 269(47): 29914–29919. Confluent Caco-2 cell monolayers (grown in 75 cm^2 flasks for up to 1 week at 37° C. and 5% CO2) were washed twice in Dulbecco's PBS (DPBS) and the cells were harvested by centrifugation at 1000 rpm after treatment with 10 mM EDTA-DPBS. The cells were washed 3 times in DPBS and the final cell pellet was resuspended in 3 volumes of ice cold HED buffer (20 mM HEPES (pH 7.67), 1 mM EGTA, 0.5 mM dithiothreitol, 1 mM phenylmethylsulphonyl fluoride (PMSF)). The cells were allowed to swell for 5 min on ice prior to homogenization for 30 sec. The homogenates were centrifuged at 40,000 rpm for 45 min at 4° C. The supernatant (S100) was removed and the pellet (P100) was resuspended in HEDG buffer (20 mM HEPES (pH 7.67), 1 mM EGTA, 0.5 mM dithiothreitol, 100 mM NaCl, 10% glycerol, 1 mM PMSF). Protein concentrations were determined using the Bradford assay (Bradford, M. M., 1976, Anal. Biochem. 72: 248–254).
Binding of peptide and/or peptide-coated PLGA particles to membrane (P100) and cytosolic (S100) fractions was assessed by detection of the dansyl moiety incorporated in the peptide. Costar ninety six well ELISA plates were coated with S100 and P100 fractions (100 μg/ml in 0.05 M NaHCO3) overnight at 4° C. The plates were blocked with 0.5% bovine serum albumin in DPBS for 1 h at room temperature and washed 3 times in 1% BSA-DPBS. Peptide-coated particles or peptides were dispersed in the same buffer and added to the plates at concentrations in the range 0.0325–0.5 mg/well. […] The plates were incubated for 1 h at room temperature. The wells were washed 3 times in 1% BSA-DPBS and 100 μl of goat anti-mouse IgGλ:HRP antibody (Southern Biotechnology 1060-05; 1:10,000) was added per well. The plates were incubated for 1 h at room temperature. After washing 3 times in 1% BSA-DPBS 100 μl of TMB substrate (3,3′,5′,5-tetramethylbenzidine; Microwell Peroxidase Substrate System (Kirkegaard and Perry Laboratories 50-76-00)) was added and the optical density was measured at 650 nm at various time intervals.
Binding of dansylated peptides to P100 fractions was assessed to determine if peptide binding was predictive of peptide-coated particle binding.

[4] = test system: rat gastro-intestinal tract (closed loop); experiment: Transport of preselected phage libraries in rat closed loop, detected by oligonucleotide hybridization/autoradiography; settings: HPT1 pool; in words; PAX2 used at 4x concentration
Protocol: Four preselected phage libraries, GI-D2H, GI-hSI, GI-HPT1 and GI-hPEPT1, were constructed by pooling phage previously selected by screening random phage display libraries D38 and DC43 using the HPT1, HPEPT1, D2H and hSI receptor or binding sites located in the GIT.
In particular, phages selected in vitro to each receptor or binding site located in the GIT were amplified in E. coli, PEG-precipitated, resuspended in TBS and the titer of each phage sample was determined by plaquing in E. coli as described above. […] Using the in situ loop model described above, 0.5 ml of preselected phage library solution was injected into the tied-off portion of the duodenum/jejunum. Blood was collected into heparinized tubes from the portal vein at 0, 15, 30, 45 and 60 minutes. A blood sample was taken from the systemic circulation at the end of the experiment. Similarly, the portion of the duodenum/jejunum used for phage injection was taken at the end of the experiment.
Thirty microliters of the collected portal blood (neat and 10^−2, 10^−1, 10^−6 dilutions) was added to 30 μl E. coli K91Kan cells (overnight culture) and incubated at 37° C. for 10 min. Subsequently, 3 ml of top agarose was added and the samples were plated for plaques. One hundred microliters of the collected portal blood was added to 100 μl of E. coli K91Kan. Five milliliters of LB medium was then added and the samples were incubated at 37° C. overnight in a rotating microbial incubator. The E. coli was removed by centrifugation and the amplified phage supernatant samples were either titered directly or were PEG-precipitated, resuspended in TBS and titered. Following titration of the amplified phage, samples containing phage from each set of animals were combined, adjusting the titer of each sample to the same titer, and were plated for plaques on LB agar lates (22 cm^2 square plates). Either 12,000 or 24,000 phage were lated for plaques.
Thirty microliters of the collected systemic blood (neat and 10^−2, 10^−1, 10^−6 dilutions) was added to E. coli K91Kan cells, incubated at 37° C. for 10 min. Three ml of top agarose was then added and the samples were plated for plaques. One hundred microliters of the collected systemic blood was added to 100 μl of E. coli K91Kan, incubated at 37° C. for 10 min. Five milliliters of LB medium was then added and the samples were incubated at 37° C. overnight in a rotating microbial incubator. The E. coli was removed by centrifugation and the amplified phage supernatant samples were either titered directly or were PEG-precipitated, resuspended in TBS and titered. Following titration of the amplified phage, samples containing phage from each set of animals were combined, adjusting the titer of each sample to the same titer, and were plated for plaques on LB agar plates (22 cm^2 square plates). Either 12,000 or 24,000 phage were plated for plaques.
The intestinal tissue portion used in each closed loop was excised. […] Alternatively, the tissue (in PBS supplemented with protease inhibitors) was homogenized in an Ultra Thorex homogenizer, washed 3 times in PBS containing protease inhibitors and resuspended in PBS containing protease inhibitors (Int-G samples). In each case, serial dilutions (neat and 10^−2, 10^−4, 10^−6 dilutions) of the tissue homogenate was titered in E. coli.
The phage amplified from the portal blood, systemic blood and intestinal tissue was plated for plaques. […] The filters were air-dried, and the DNA was cross-linked to the filter (UV crosslinking: 2 min, high setting). The filters were incubated in pre-hybridization buffer (6×SSC, 5× Denhardt's solution, 0.1% SDS, […] yeast tRNA) at 40° C.–45° C. for at least 60 min.
Synthetic oligonucleotides, (22-mers), complimentary to regions coding for the receptor or binding sites used to create the preselected phage library, were synthesized (see Table 14 below).

BSA = BSA (Bos taurus, UniProt P02769); experiment: Receptor ELISA of phage on BSA (background control protein); format: binding; settings: Table 5; phage panned on HPT-1
Chain of BSA (P02769 25-607): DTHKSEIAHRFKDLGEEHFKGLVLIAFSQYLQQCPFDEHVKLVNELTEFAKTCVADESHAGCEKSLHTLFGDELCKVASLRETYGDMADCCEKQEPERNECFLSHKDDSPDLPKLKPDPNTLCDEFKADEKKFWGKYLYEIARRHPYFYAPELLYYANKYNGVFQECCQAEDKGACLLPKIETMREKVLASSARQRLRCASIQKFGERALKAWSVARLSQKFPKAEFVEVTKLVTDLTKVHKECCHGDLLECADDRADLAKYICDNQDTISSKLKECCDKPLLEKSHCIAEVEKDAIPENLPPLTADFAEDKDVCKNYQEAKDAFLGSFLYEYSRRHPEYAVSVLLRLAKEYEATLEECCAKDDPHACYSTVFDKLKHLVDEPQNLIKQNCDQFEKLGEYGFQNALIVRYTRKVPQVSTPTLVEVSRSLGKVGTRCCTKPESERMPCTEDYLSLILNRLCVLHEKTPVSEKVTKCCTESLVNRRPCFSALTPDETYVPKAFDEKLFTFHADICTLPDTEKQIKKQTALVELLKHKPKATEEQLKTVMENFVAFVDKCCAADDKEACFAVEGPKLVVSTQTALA
Protocol: 96 well plates were coated overnight with GIT receptor, BSA and, optionally, IDE (insulin degrading enzyme, an irrelevant His-fusion protein)or hTF. The plates were blocked for one hour with 0.5% BSA-PBS. After clarification, the amplified phage were diluted 1:100 in 1% BSA plus 0.05% Tween 20 in PBS and added to the plates. Following incubation of the plates on a rotator for 1 to 2 hours, the plates were washed 5 times with 1% BSA plus 0.05% Tween 20 in PBS. Dilute anti-M13-HRP conjugate (anti-M13 antibody linked to horse radish peroxidase (HRP)) was added to all the wells and the plate was incubated for one hour on a rotator. After the plates were washed 5 times, as described above, TMB substrate was added to the wells. The plates were read at 650 nm absorbance.

[5] = molecular target: T1, recombinant D2H receptor domain (human D2H transporter, amino acid residues 387-685), His-tag fusion protein (human) (UniProt Q07837); experiment: phage ELISA on coated D2H
T1 sequence: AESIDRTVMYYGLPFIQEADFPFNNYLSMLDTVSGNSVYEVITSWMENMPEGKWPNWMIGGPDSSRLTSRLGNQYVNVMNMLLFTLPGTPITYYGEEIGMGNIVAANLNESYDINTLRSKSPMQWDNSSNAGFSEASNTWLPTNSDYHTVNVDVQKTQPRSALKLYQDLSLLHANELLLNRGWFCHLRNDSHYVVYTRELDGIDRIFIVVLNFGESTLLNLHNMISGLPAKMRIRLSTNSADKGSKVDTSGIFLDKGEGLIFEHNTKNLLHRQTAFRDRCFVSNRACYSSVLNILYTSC

[6] = molecular target: T1, recombinant D2H receptor domain (human D2H transporter, amino acid residues 387-685), His-tag fusion protein (human); experiment: phage ELISA, OD on D2H over OD on BSA
[7] = molecular target: bovine serum albumin (bovine) (UniProt P02769); experiment: phage ELISA on coated BSA
Chain of bovine serum albumin (bovine) (P02769 25-607 limits assumed): as the sequence (P02769 25-607) above

With `C[C@@H](O)[C@H](NC(=O)[C@@H](N)CCCCNS(=O)(=O)c1cccc2c(N(C)C)cccc12)C(=O)N[C@@H](CCCNC(=N)N)C(=O)N[C@@H](CCCCN)C(=O)N[C@@H](CO)C(=O)N[C@@H](CO)C(=O)N[C@@H](CCCNC(=N)N)C(=O)N[C@@H](CO)C(=O)N[C@@H](CC(N)=O)C(=O)N1CCC[C@H]1C(=O)N[C@@H](CCCNC(=N)N)C(=O)NCC(=O)N[C@@H](CCCNC(=N)N)C(=O)N[C@@H](CCCNC(=N)N)C(=O)N[C@@H](Cc1c[nH]cn1)C(=O)N1CCC[C@H]1C(=O)NCC(N)=O` [ZElan031] (H-K(Dansyl)TRKSSRSNPRGRRHPG-NH2) the “Rel. Stab.” value [1] was 3.

In the case of `C[C@@H](O)[C@H](NC(=O)[C@@H](N)CCCCNS(=O)(=O)c1cccc2c(N(C)C)cccc12)C(=O)N[C@H](CCCNC(=N)N)C(=O)N[C@@H](CCCCN)C(=O)N[C@@H](CO)C(=O)N[C@@H](CO)C(=O)N[C@H](CCCNC(=N)N)C(=O)N[C@@H](CO)C(=O)N[C@@H](CC(N)=O)C(=O)N1CCC[C@H]1C(=O)N[C@H](CCCNC(=N)N)C(=O)NCC(=O)N[C@H](CCCNC(=N)N)C(=O)N[C@H](CCCNC(=N)N)C(=O)N[C@@H](Cc1c[nH]cn1)C(=O)N1CCC[C@H]1C(=O)NCC(N)=O` [ZElan053, H2N-K(dns)TrKSSrSNPrGrrHPG-CONH2] (H-K(Dansyl)T[dR]KSS[dR]SNP[dR]G[dR][dR]HPG-NH2), the “Rel. Stab.” value [1] is reported as 1.

For `C[C@@H](O)[C@H](NC(=O)[C@@H](N)CCCCNS(=O)(=O)c1cccc2c(N(C)C)cccc12)C(=O)N[C@@H](CCCNC(=N)N)C(=O)N[C@@H](CCCCN)C(=O)N[C@@H](CO)C(=O)N[C@@H](CO)C(=O)N[C@H](CCCNC(=N)N)C(=O)N[C@@H](CO)C(=O)N[C@@H](CC(N)=O)C(=O)N1CCC[C@H]1C(=O)N[C@@H](CCCNC(=N)N)C(=O)NCC(=O)N[C@H](CCCNC(=N)N)C(=O)N[C@@H](CCCNC(=N)N)C(=O)N[C@@H](Cc1c[nH]cn1)C(=O)N1CCC[C@H]1C(=O)NCC(N)=O` [ZElan054, H2N-K(dns)TRKSSrSNPRGrRHPG-CONH2] (H-K(Dansyl)TRKSS[dR]SNPRG[dR]RHPG-NH2), the “Rel. Stab.” value [1] was 2.

With “H-K(Dansyl)STPPSREAYSRPYSVDSDSDTNAKHSSHNRRLRTRSRPNG-NH2 [ZElan018]” the “Binding value at 20 μg/ml” value ([2]; 20 μg/ml) was −0.33, the “Binding value at 50 μg/ml” value ([2]; 50 μg/ml) was 0.95 and the “Binding of dansylated peptide to P100 fraction” value ([3]; repeat assay, compared with scrambled PAX2 control) was “indistinguishable from the scrambled PAX2 control”.

In the case of “SDHALGTNLRSDNAKEPGDYNCCGNGNSTGRKVFNRRRPSAIPT (not fully specified; cysteine pairing not given here) [HAX42]”, the “Presence in the portal or systemic circulation” value [4] is reported as “found in the portal and systemic circulation”, the Peptide/particle binding correlation ([3]; in words) is reported as “correlated well” and the BSA (BSA) is reported as 0.071 OD.

B1: phage DCX8 (peptide)
peptide: RYKHDIGCDAGVDKKSSSVRGGCGAHSSPPRAGRGPRGTMVSRL
B1 showed an OD [5] of 0.163 OD 650 nm, a D2H/BSA [6] of 3 and an OD [7] of 0.063 OD 650 nm.

B2: phage DCX42 (peptide)
peptide: RYSGLSPRDNGPACSQEATLEGCGAQRLMSTRRKGRNSRPGWTL
B2 showed an OD [5] of 0.158 OD 650 nm, a D2H/BSA [6] of 2 and an OD [7] of 0.065 OD 650 nm.

B3: phage DCX11 (peptide)
peptide: SQGSKQCMQYRTGRLTVGSEYGCGMNPARHATPAYPARLLPRYR
B3 showed an OD [5] of 0.222 OD 650 nm, a D2H/BSA [6] of 3 and an OD [7] of 0.071 OD 650 nm.

From US7053177B1, “Random peptides that bind to gastro-intestinal tract (GIT) transport receptors and related methods” (Cytogen Corporation, priority 1997, dated 2006)
